Blank lines part the entries; values can stand above or below the molecule they belong to.
Legend:
TAp63αΔTID = assay: co-IP (anti-p63 IP, GFP Western blot, quantified); conditions: HEK293 cells cotransfected with TAp63αΔTID and GFP-TID plasmids; 3 independent experiments; parent: est. 6.4; read off a plot
[1] = molecular target: TAp63α p.Q568fs*3 (human) (UniProt Q9H3D4); assay: native gel or EMSA; BN-PAGE (NativePAGE 3%-12% Bis-Tris) of lysates of transfected SAOS-2 cells treated with 10 uM MG132 for 12 h; blot with anti-p63
[2] = molecular target: the molecule itself; assay: as above

- response (TAp63αΔTID): 2.8 % Input
Molecule: GFP-TID, wild type R655Q

- stoichiometry N [1]: 4
Molecule: TAp63α p.Q568fs*3 (from UniProt Q9H3D4-1 1-567) (domain or fragment)

- response (TAp63αΔTID): 0.58 % Input
Molecule: GFP-TID, wild type L646P

The remaining lines, values behind:

Molecule: GFP-TID, wild type R643Q
- response (TAp63αΔTID): 2.4 % Input

Molecule: GFP-TID, wild type R647C
- response (TAp63αΔTID): 3.5 % Input

B1: TAp63α p.R647C (natural protein, human, UniProt Q9H3D4-1 1-680, looked up)
chain: MNFETSRCATLQYCPDPYIQRFVETPAHFSWKESYYRSTMSQSTQTNEFLSPEVFQHIWDFLEQPICSVQPIDLNFVDEPSEDGATNKIEISMDCIRMQDSDLSDPMWPQYTNLGLLNSMDQQIQNGSSSTSPYNTDHAQNSVTAPSPYAQPSSTFDALSPSPAIPSNTDYPGPHSFDVSFQQSSTAKSATWTYSTELKKLYCQIAKTCPIQIKVMTPPPQGAVIRAMPVYKKAEHVTEVVKRCPNHELSREFNEGQIAPPSHLIRVEGNSHAQYVEDPITGRQSVLVPYEPPQVGTEFTTVLYNFMCNSSCVGGMNRRPILIIVTLETRDGQVLGRRCFEARICACPGRDRKADEDSIRKQQVSDSTKNGDGTKRPFRQNTHGIQMTSIKKRRSPDDELLYLPVRGRETYEMLLKIKESLELMQYLPQHTIETYRQQQQQQHQHLLQKQTSIQSPSSYGNSSPPLNKMNSMNKLPSVSQLINPQQRNALTPTTIPDGMGANIPMMGTHMPMAGDMNGLSPTQALPPPLSMPSTSHCTPPPPYPTDCSIVSFLARLGCSSCLDYFTTQGLTTIYQIEHYSMDDLASLKIPEQFRHAIWKGILDHRQLHEFSSPSHLLRTPSSASTVSVGSSETRGERVIDAVRFTLCQTISFPPRDEWNDFNFDMDARRNKQQRIKEEGE
notes: Variant found in three patients with POI; source: SAOS-2, transfected, MG132-treated, in lysate
- stoichiometry N [2]: 4
